This passage reports Kd results from the Immune Epitope Database (IEDB).

One assay concerns the target HLA-B*15:09. The experiment in a line: IEDB peptide-MHC binding, purified MHC/direct/fluorescence; filed as Kd, often an IC50 or EC50 that approximates it; ≥ and ≤ were set here for values at or beyond the usual limits of such assays. To be noted: source organism: Orthomarburgvirus marburgense.
Another assay deals with HLA-B*57:01. The assay is described as above.
The target in a further assay is HLA-B*48:01. Described as above. The note with it: source organism: Marburg virus - Musoke, Kenya, 1980.
In another assay the target is HLA-B*58:01. The description is as above. The note with it: source organism: Marburg virus - Musoke, Kenya, 1980.
For assay [1], the target named is HLA-B*15:01. The assay is described as above.
The target in the next assay is HLA-B*18:01. Described as above.
The target in another assay is HLA-A*68:02. The description is as above. To be noted: source organism: Marburg virus - Musoke, Kenya, 1980.
The target of a further assay is HLA-B*07:02. The description is as above. The note with it: source organism: Marburg virus - Musoke, Kenya, 1980.
In another assay the target is HLA-B*27:05. The assay is described as above. The note with it: source organism: Marburg virus - Musoke, Kenya, 1980.
The next assay has as its target HLA-B*73:01. The assay is described as above. The note with it: source organism: Marburg virus - Musoke, Kenya, 1980.
In the next assay the target is HLA-A*11:01. The assay is described as above. To be noted: source organism: Marburg virus - Musoke, Kenya, 1980.
The target in a further assay is HLA-A*31:01. The description is as above. The note with it: source organism: Marburg virus - Musoke, Kenya, 1980.
In a further assay the target is HLA-B*15:17. The description is as above.
A further assay deals with HLA-B*08:02. The assay is described as above. The note with it: source organism: Orthomarburgvirus marburgense.
Another assay addresses HLA-A*02:01. The description is as above.
A further assay concerns the target HLA-B*27:02. The assay is described as above. The note with it: source organism: Orthomarburgvirus marburgense.
The target in a further assay is HLA-A*01:01. Described as above. The note with it: source organism: Marburg virus - Musoke, Kenya, 1980.
Another assay addresses HLA-A*26:02. The experiment in a line: IEDB peptide-MHC binding, purified MHC/competitive/fluorescence; filed as Kd, often an IC50 or EC50 that approximates it; ≥ and ≤ were set here for values at or beyond the usual limits of such assays. The note with it: source organism: Orthomarburgvirus marburgense.
For assay [2], the target named is HLA-A*02:06. The assay is described as above. To be noted: source organism: Orthomarburgvirus marburgense.
Assay [3] concerns the target HLA-B*51:01. The assay is described as above. The note with it: source organism: Yersinia pestis Nepal516.
The next assay concerns the target HLA-A*32:15. The assay is described as above. To be noted: source organism: Yersinia pestis Nepal516.
The target in another assay is HLA-B*35:01. Described as above. To be noted: source organism: Yersinia pestis Nepal516.
In assay [4] the target is HLA-B*15:01. Described as above. To be noted: source organism: Yersinia pestis Nepal516.
The target in a further assay is HLA-B*83:01. The assay is described as above. To be noted: source organism: Yersinia pestis Nepal516.
The target of another assay is HLA-B*40:13. The assay is described as above. The note with it: source organism: Yersinia pestis Nepal516.
Another assay has as its target HLA-B*15:42. The description is as above. The note with it: source organism: Yersinia pestis Nepal516.
The target of a further assay is HLA-A*32:07. The description is as above. To be noted: source organism: Yersinia pestis Nepal516.
The target of the next assay is HLA-B*45:06. The description is as above. To be noted: source organism: Yersinia pestis Nepal516.
The target of another assay is HLA-A*68:23. Described as above. To be noted: source organism: Yersinia pestis Nepal516.
Assay [5] addresses HLA-B*51:01. The experiment in a line: IEDB peptide-MHC binding, purified MHC/direct/fluorescence; filed as Kd, often an IC50 or EC50 that approximates it; ≥ and ≤ were set here for values at or beyond the usual limits of such assays. The note with it: source organism: Vibrio parahaemolyticus AQ3810.
The target in a further assay is HLA-A*29:02. The assay is described as above. The note with it: source organism: Vibrio parahaemolyticus AQ3810.
The next assay concerns the target HLA-A*69:01. Described as above. To be noted: source organism: Vibrio parahaemolyticus AQ3810.
In the next assay the target is HLA-B*27:03. The assay is described as above. The note with it: source organism: Vibrio parahaemolyticus AQ3810.
Another assay has as its target HLA-A*02:12. The description is as above. The note with it: source organism: Vibrio parahaemolyticus AQ3810.
The next assay deals with HLA-A*02:16. Described as above. The note with it: source organism: Vibrio parahaemolyticus AQ3810.
For a further assay, the target named is HLA-A*03:01. The description is as above. The note with it: source organism: Vibrio parahaemolyticus AQ3810.
Assay [6] concerns the target HLA-A*02:06. The assay is described as above. To be noted: source organism: Vibrio parahaemolyticus AQ3810.
For the next assay, the target named is HLA-A*26:01. The description is as above. To be noted: source organism: Vibrio parahaemolyticus AQ3810.
Another assay has as its target HLA-B*46:01. Described as above. To be noted: source organism: Vibrio parahaemolyticus AQ3810.
[7] abbreviates: source organism: Marburg virus - Musoke, Kenya, 1980.
Where [8] appears, read: source organism: Vibrio parahaemolyticus AQ3810.

With KRLLLKLDF, the dissociation constant (Kd) in the assay with HLA-B*15:09, in the assay with HLA-B*57:01 (setting [7]), with HLA-B*48:01, with HLA-B*58:01, with HLA-B*15:01 [1] (setting [7]) and with HLA-B*18:01 (setting [7]) was at least 20 µM each time. For the same sequence, the Kd in the assay with HLA-A*68:02 was at least 20 µM; with HLA-B*07:02 it was at least 20 µM; in the assay with HLA-B*27:05 it was 0.382 µM; with HLA-B*73:01, at least 20 µM; with HLA-A*11:01, at least 20 µM; in the assay with HLA-A*31:01, at least 20 µM. For the same sequence, the dissociation constant (Kd) with HLA-B*15:17 (setting [7]) was at least 20 µM; in the assay with HLA-B*08:02 it was at least 20 µM; in the assay with HLA-A*02:01 (setting [7]) it was at least 20 µM; in the assay with HLA-B*27:02 it was 12.2 µM; with HLA-A*01:01, at least 20 µM; with HLA-A*26:02, at least 20 µM. Further, the Kd with HLA-A*02:06 [2] is 3.93 µM.

MPFAWQFGF: the Kd with HLA-B*51:01 [3] was 0.669 µM; with HLA-A*32:15, 0.0032 µM; in the assay with HLA-B*35:01, at most 0.0001 µM; with HLA-B*15:01 [4] it was at least 20 µM; in the assay with HLA-B*83:01, 0.0297 µM; with HLA-B*40:13, 0.232 µM. The equilibrium dissociation constant (Kd) is at least 5 µM with HLA-B*15:42, 0.0056 µM in the assay with HLA-A*32:07, at least 5 µM in the assay with HLA-B*45:06 and 0.0027 µM in the assay with HLA-A*68:23.

With MQGKDFNHL, the Kd with HLA-B*51:01 [5], with HLA-A*29:02, with HLA-B*57:01 (setting [8]), in the assay with HLA-A*69:01, with HLA-B*15:01 [1] (setting [8]) and with HLA-B*18:01 (setting [8]) was at least 20 µM in each case. Moreover, the equilibrium dissociation constant (Kd) in the assay with HLA-B*27:03 is at least 20 µM; with HLA-A*02:12, 1.21 µM; with HLA-A*02:16 it was at least 20 µM; with HLA-B*15:17 (setting [8]), at least 20 µM; in the assay with HLA-A*02:01 (setting [8]), at least 20 µM; with HLA-A*03:01, at least 20 µM. Further, the Kd in the assay with HLA-A*02:06 [6] was 0.009 µM; in the assay with HLA-A*26:01, at least 20 µM; with HLA-B*46:01, at least 20 µM.
